According to patent US7550427B2, “Poly-pegylated protease inhibitors” (Dyax Corp., priority 2003, dated 2009):
Read-outs that look alike come from different tables or passages of the source. Where no end group is shown, it is not given here.

Experiments:
[1] = Plasma clearance in mice of 125I-labeled protein; details: for Clearance (%) alpha phase: fraction of label cleared through alpha phase; for Clearance (%) beta phase: fraction of label cleared through beta phase; for T1/2 alpha / T1/2 beta: plasma clearance, tail vein injection
Procedure: (§1) The protein to be tested is labeled with iodine (^125I) using the iodogen method (Pierce). The reaction tube is rinsed with reaction buffer (25 mM Tris, 0.4 M NaCl, pH 7.5). The tube is emptied and then replaced with 0.1 ml of reaction buffer and 12 μl of carrier free iodine-126, about 1.6 mCi. After six minutes, the activated iodine is transferred to a tube containing the protein to be tested. After nine minutes, the reaction is terminated with 25 μl of saturated tyrosine solution. The reaction can be purified on a 5 ml D-salt polyacrylamide 6000 column in Tris/NaCl. HSA can be used to minimize sticking to the gel.
(§2) A sufficient number of mice (about 36) are obtained. The weight of each animal is recorded. In the case of mice, the animals are injected in the tail vein with about 5 μg of the protein to be tested. Samples are recovered at each time point per animal, with four animals per time point, at approximately 0, 7, 15, 30, and 90 minutes, 4 hours, 8 hours, 16 hours, and 24 hours post injection. Samples (about 0.5 ml) are collected into anti-coagulant (0.02 ml EDTA). Cells are spun down and separated from plasma/serum. Samples can be analyzed by radiation counting and SEC peptide column on HPLC with inline radiation detection.
(§3) Data can be fit to a bi-exponential (equation 2) or a tri-exponential (equation 3) decay curve describing “fast”, “slow”, and “slowest” phases of in vivo clearance: y=Ae^−αt+Be^−βt Equation 2 y=Ae^−αt+Be^−βt+Ce^−γt Equation 3 Where: • y=Amount of label remaining in plasma at time=t post-administration • A=Total label in “fast” clearance phase • B=Total label in “slow” clearance phase • C=Total label in “slowest” clearance phase • α=“Fast” clearance phase decay constant • β=“Slow” clearance phase decay constant • γ=“Slowest” clearance phase decay constant • t=Time post administration
(§4) The α, β, and γ phase decay constants can be converted to half-lives for their respective phases as: α Phase Half-life=0.69 (1/α) β Phase Half-life=0.69 (1/β) γ Phase Half-life=0.69 (1/γ)
(§5) In the case where the data are fit using the bi-exponential equation, the percentages of the total label cleared from in vivo circulation through the α and β phases are calculated as: % α Phase=[A/(A+B)]×100 % β Phase=[B/(A+B)]×100
(§6) In the case where the data are fit using the tri-exponential equation, the percentages of the total label cleared from in vivo circulation through the α and β phases are calculated as: % α Phase=[A/(A+B+C)]×100 % β Phase=[B/(A+B+C)]×100 % γ Phase=[C/(A+B+C)]×100

[2] = Plasma clearance in rabbit of 125I-labeled protein; details: for Clearance (%) alpha phase: fraction cleared through alpha phase; for Clearance (%) beta phase: fraction cleared through beta phase; for T1/2 alpha / T1/2 beta / T1/2 gamma: plasma clearance, ear vein injection; for Clearance (%) gamma phase: fraction cleared through gamma phase
Procedure: (§7) The following methods can be used to evaluate the pharmacokinetics (PK) of proteins such as poly-PEGylated proteins in animals, e.g., mice and rabbits. The protein to be tested is labeled with iodine (^125I) using the iodogen method (Pierce). The reaction tube is rinsed with reaction buffer (25 mM Tris, 0.4 M NaCl, pH 7.5). The tube is emptied and then replaced with 0.1 ml of reaction buffer and 12 μl of carrier free iodine-126, about 1.6 mCi. After six minutes, the activated iodine is transferred to a tube containing the protein to be tested. After nine minutes, the reaction is terminated with 25 μl of saturated tyrosine solution. The reaction can be purified on a 5 ml D-salt polyacrylamide 6000 column in Tris/NaCl. HSA can be used to minimize sticking to the gel.
(§8) For rabbits, the material is injected into the ear vein. Samples can be collected at 0, 7, 15, 30, 90 minutes, 4, 8, 16, 24, 48, 72, 96, 120, and 144 hours post-injection. Samples can be collected and analyzed as for mice.
as §3, §4, §5, §6

[3] = Solubility upon dilution in Hepes buffer for the PEGylation reaction; assay type: physicochemical; details: stock ~10 mg/ml diluted 1:1 with 0.2M Hepes, pH 7.8-8.5
Procedure: • mPEG-SPA, MW 5,000 Da, NEKTAR Therapeutics, cat. no.: 2M4M0H01 (succinimidyl ester of methoxy-capped polyethylene glycol propionic acid) • DX-88 API, MW 7,054 Da, ˜10 mg/ml in PBS, pH 7.0 • DX-890 API, MW 6,231 Da, ˜10 mg/ml in 10 mM NaAc, pH 3.0 • DX-1000 API, MW 7,167 Da, ˜10 mg/ml in PBS, pH 7.0 • 0.2-0.3M Hepes, pH 7.8-8.5 • 1M Tris, pH8.0 • 1N HCl PEGylation Reaction I: • 1) Calculate the amount of PEG needed for reacting the Kunitz domain polypeptide at approximately 10:1 molar ratio of PEG:reactive group. For example, DX-890 has 5 total reactive groups, so a 50:1 molar ratio of PEG:DX-890 is used. Depending upon the Kunitz domain polypeptide and/or reaction conditions, a ratio of 25:1 to 50:1 is typically used. For example, for PEGylating 10 mg of DX-890 (MW 6,231 Da) at a 50:1 molar ratio of PEG:peptide, 401 mg of PEG (MW 5,000 Da) would be used. • 2) Just prior to reacting the Kunitz domain polypeptide with the PEG, dilute the required volume of Kunitz domain polypeptide stock 1:1 with 0.2M Hepes, pH 7.8-8.5 buffer. The peptide stock is typically ˜10.0 mg/ml. Therefore upon dilution, the concentration of the Kunitz domain polypeptide is ˜5.0 mg/ml in 0.1M Hepes, pH 7.8-8.5 buffer. […] Reaction times can be chosen to minimize precipitation. • 3) Immediately add the 1:1 diluted Kunitz domain polypeptide solution directly to the PEG powder and quickly dissolve the PEG by vortexing. Once completely dissolved, cap the tube, wrap in foil and allow to react while slowly rocking/tumbling for 2.5-3 hours at 2-8° C. to 25° C. • 4) Quench the reaction by adding 1/9th. volume of 1 M Tris, pH 8.0 for 30-60 minutes at 2-8° C. to 25° C. while slowly rocking/tumbling. • 5) Carefully and slowly adjust the pH of the quench reaction mixture to ˜ pH 7 with small additions of 1N HCl while mixing. • 6) The neutralized reaction can be stored at 2-8° C. or frozen at −20° C. to −80° C. until purification. The direct addition of the Kunitz domain polypeptide solution to PEG powder can help simplify the number of steps in the reaction process and reduce hydrolysis prior to reaction.

[4] = Allometric extrapolation of clearance to humans; assay type: in vivo; details: 70 Kg human
Description: The data were plotted using a double 4-parameter exponential decay.

[5] = 14-day daily nebulization in 12 healthy volunteers; assay type: in vivo, human
Procedure: It is possible, for example, to deliver DX-890 to the lung by nebulization. DX-890 activity was detected in broncho-alveolar lavages of volunteer inhaling nebulized DX-890. 12 healthy volunteers received during 14 days a single daily dose of DX-890, by nebulization lasting 5 or 20 minutes, corresponding to estimated inhaled mass of 3.75 or 15 mg respectively. […] No clinical or biological abnormalities were observed.

[6] = mouse, in vivo
Procedure: as §1, §2, §3, §4, §5, §6

[7] = Resistance to oxidative and proteolytic inactivation; assay type: physicochemical
Description: DX-890 is derived from the second Kunitz-type domain of inter-α-inhibitor protein (ITI-D2) and can be produced by fermentation in Pichia pastoris. It includes 56 amino acids, with a predicted MW of 6,237 Daltons.

[8] = rabbit, in vivo
Procedure: as §7, §8, §3, §4, §5, §6

[9] = Clinical studies in healthy human volunteers, inhalation at 8 increasing doses; assay type: in vivo; details: inhaled mass up to about 72 mg
[10] = Acute and subchronic 4-week studies of aerosolised DX-890 in cynomolgus monkeys; assay type: in vivo
[11] = biological target: T1, hNE of sputum from cystic fibrosis children (Homo sapiens, UniProt P08246); details: in vitro, ex vivo and in vivo pharmacological studies (Delacourt et al. 2002); cited from earlier work
T1 construct: hNE of sputum from cystic fibrosis children; from tissue; host or cells: sputum from cystic fibrosis children
T1 sequence (P08246 30-247 limits assumed): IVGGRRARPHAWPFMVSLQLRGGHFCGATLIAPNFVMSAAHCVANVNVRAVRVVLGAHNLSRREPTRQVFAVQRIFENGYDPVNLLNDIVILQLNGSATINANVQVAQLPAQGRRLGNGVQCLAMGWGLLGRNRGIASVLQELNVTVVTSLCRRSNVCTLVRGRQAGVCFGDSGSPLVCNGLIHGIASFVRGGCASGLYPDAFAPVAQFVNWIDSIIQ

[12] = allometric extrapolation from mice and rabbits
[13] = allometric extrapolation, restated in days
[14] = 12 healthy volunteers, 14 days single daily dose, nebulization, inhaled mass 3.75 or 15 mg

Substance: DX-1000: a human plasmin inhibitor, a Kunitz domain with three available lysines (SEQ ID NO:25) (EAMHSFCAFKAETGPCRARFDRWFFNIFTRQCEEFIYGGCEGNQNRFESLEECKKMCTRD; Synthetically generated peptide)
- Clearance (%) alpha phase [1]: 87%
- Clearance (%) beta phase [1]: 13%
- T1/2 alpha [1]: 0.025 h
- T1/2 beta [1]: 0.448 h
- Clearance (%) alpha phase [2]: 85%
- Clearance (%) beta phase [2]: 15%
- T1/2 alpha [2]: 0.9 min
- T1/2 beta [2]: 1 h
- Solubility upon dilution [3]: relatively stable in terms of solubility upon dilution
- Extrapolated long half life clearance phase [4, 12]: 1.7 h

Substance: 5 × PEG5-DX-890: modified DX-890 with five attached 5 kDa PEG moieties (mPEG-SPA) (EACNLPIVRGPCIAFFPRWAFDAVKGKCVLFPYGGCQGNGNKFYSEKECREYCGVP; not fully specified; cysteine pairing not given here; also: five attached 5 kDa PEG moieties (mPEG-SPA))
- Clearance (%) alpha phase [1]: 33%
- Clearance (%) beta phase [1]: 67%
- T1/2 alpha [1]: 1.1 h
- T1/2 beta [1]: 20.2 h
- Clearance (%) alpha phase [2]: 28%
- Clearance (%) beta phase [2]: 34%
- Clearance (%) gamma phase [2]: 38%
- T1/2 alpha [2]: 2.8 min
- T1/2 beta [2]: 4.5 h
- T1/2 gamma [2]: 97.6 h
- Extrapolated long half life clearance phase [4, 12]: 330 h
- Extrapolated long half life clearance phase [4, 13]: about 14 days

Substance: DX-88: a kallikrein inhibitor, a Kunitz domain with three available lysines (SEQ ID NO:24) (EAMHSFCAFKADDGPCRAAHPRWFFNIFTRQCEEFIYGGCEGNQNRFESLEECKKMCTRD; Synthetically generated peptide)
- Solubility upon dilution [3]: relatively stable in terms of solubility upon dilution

Substance: 4 × PEG5-DX-1000: DX-1000 with four attached 5 kDa PEG moieties (4×5 kDa PEG/peptide) (MHSFCAFKAETGPCRARFDRWFFNIFTRQCEEFIYGGCEGNQNRFESLEECKKMCTRD; not fully specified; cysteine pairing not given here; also: four attached 5 kDa PEG moieties (4×5 kDa PEG/peptide))
- Clearance (%) alpha phase [1]: 38%
- Clearance (%) beta phase [1]: 62%
- T1/2 alpha [1]: 0.3 h
- T1/2 beta [1]: 12.5 h
- Clearance (%) alpha phase [2]: 34%
- Clearance (%) beta phase [2]: 32%
- Clearance (%) gamma phase [2]: 34%
- T1/2 alpha [2]: 1.9 min
- T1/2 beta [2]: 3 h
- T1/2 gamma [2]: 69.3 h
- Extrapolated long half life clearance phase [4, 12]: 210 h
- Extrapolated long half life clearance phase [4, 13]: about 9 days

Substance: DX-890: 56-amino-acid Kunitz domain (SEQ ID NO:23) derived from ITI-D2; inhibitor of human neutrophil elastase (EACNLPIVRGPCIAFFPRWAFDAVKGKCVLFPYGGCQGNGNKFYSEKECREYCGVP; Synthetically generated peptide)
- Clearance (%) alpha phase [1]: 79%
- Clearance (%) beta phase [1]: 21%
- Adverse events [5, 14]: no significant adverse event
- Tolerability [5, 14]: excellent
- DX-890 activity in broncho-alveolar lavages ([5]; volunteer inhaling nebulized DX-890): detected
- T1/2 alpha [6]: 1.3 min
- T1/2 beta [6]: 0.987 h
- Resistance to oxidative and proteolytic inactivation [7]: resistant to oxidative and proteolytic inactivation
- Clearance (%) alpha phase [2]: 83%
- Clearance (%) beta phase [2]: 17%
- T1/2 alpha [8]: 1.7 min
- T1/2 beta [8]: 3.4 h
- Safety of administration by inhalation [9]: safe
- Clinical or biological toxicity, histopathological lesions [10]: no signs of clinical or biological toxicity
- Effect against lesions induced by hNE of sputum from cystic fibrosis children [11]: protective effect
- Solubility upon dilution [3]: may precipitate over time
- Extrapolated long half life clearance phase [4, 12]: 8.4 h
